Test results: patent US20060264369

Target: von Willebrand factor full length (Homo sapiens) (UniProt P04275)
Assay: filter
Conditions: 3'-idT

Sequence: GCGUGCAGUGCCGGCCGTGCGGTGCCUCCGUCACGC [ARC1527]
- Kd (2'-OMe/deoxy composite, single PS, internal PEG, 14.1% bound at 100 nM vWF): 3.4 nM

Sequence: CGUGCAGUGCCGGCCGTGCGGTGCCUCCGUCACG [ARC1532]
- Kd (2'-OMe/deoxy composite, single PS, internal PEG, 19.3% bound at 100 nM vWF): 2.6 nM

Sequence: GGCGTGCAGTGCCGGCCGTGCGGTGCCTCCGTCACGCC [ARC1029]
- Kd (internal PEG spacer after GGCGTGCAGTGCC, DPBS, 0.1 mg/mL BSA, RT): 1.4 nM

Sequence: CGUGCAGUGCCGGCCGTGCGGTGCCUCCGUCACG [ARC1531]
- Kd (2'-OMe/deoxy composite, single PS, internal PEG, 20.0% bound at 100 nM vWF): 1.5 nM

Sequence: GCGUGCAGUGCCGGCCGTGCGGTGCCUCCGUCACGC [ARC1528]
- Kd (2'-OMe/deoxy composite, single PS, internal PEG, 10.2% bound at 100 nM vWF): 4.2 nM

Sequence: CGGCCGTGCGGTGCCUCCGUCACGUGCAGUGCCG [ARC1533]
- Kd (2'-OMe/deoxy composite, single PS, internal PEG, 31.7% bound at 100 nM vWF): 4 nM

Sequence: GCGTGCAGTGCCTAGGCCGTGCGGTGCCTCCGTCACGCC [ARC1028]
- Kd (internal PEG spacer after GCGTGCAGTGCCT, DPBS, 0.1 mg/mL BSA, RT): 1.1 nM
